To fix the notation:
T1: human MerTK expressed on cells (human, UniProt Q12866 21-999)
T1 construct: whole, on cells; also called CHO-K1-hMerTK; CHO-K1-MerTK
T1 sequence (looked up): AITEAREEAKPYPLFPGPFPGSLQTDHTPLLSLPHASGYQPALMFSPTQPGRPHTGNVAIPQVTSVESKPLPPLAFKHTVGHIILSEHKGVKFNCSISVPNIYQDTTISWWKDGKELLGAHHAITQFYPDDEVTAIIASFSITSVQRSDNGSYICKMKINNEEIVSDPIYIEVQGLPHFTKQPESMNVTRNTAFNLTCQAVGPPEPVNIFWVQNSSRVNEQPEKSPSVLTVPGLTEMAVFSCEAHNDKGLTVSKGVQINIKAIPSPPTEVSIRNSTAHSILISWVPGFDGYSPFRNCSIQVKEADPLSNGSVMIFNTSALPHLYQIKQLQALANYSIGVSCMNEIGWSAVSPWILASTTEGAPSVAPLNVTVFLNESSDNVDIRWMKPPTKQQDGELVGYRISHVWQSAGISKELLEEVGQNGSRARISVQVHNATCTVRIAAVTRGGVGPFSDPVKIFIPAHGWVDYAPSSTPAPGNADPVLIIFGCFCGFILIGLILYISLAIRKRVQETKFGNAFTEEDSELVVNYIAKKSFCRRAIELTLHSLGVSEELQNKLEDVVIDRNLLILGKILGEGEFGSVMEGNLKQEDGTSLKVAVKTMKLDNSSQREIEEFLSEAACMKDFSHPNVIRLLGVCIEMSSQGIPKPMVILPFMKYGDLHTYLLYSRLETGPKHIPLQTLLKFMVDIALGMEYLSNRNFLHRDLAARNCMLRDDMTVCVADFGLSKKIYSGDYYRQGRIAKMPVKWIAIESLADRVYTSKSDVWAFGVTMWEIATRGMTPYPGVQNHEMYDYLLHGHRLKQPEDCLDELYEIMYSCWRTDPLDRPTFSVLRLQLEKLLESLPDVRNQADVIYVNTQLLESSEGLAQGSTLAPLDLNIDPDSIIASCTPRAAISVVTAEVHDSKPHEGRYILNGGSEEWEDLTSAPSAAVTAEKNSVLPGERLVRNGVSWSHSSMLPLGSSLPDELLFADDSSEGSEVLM

T2: cyno MerTK-his protein (cynomolgus, UniProt A0A2K5V1H9 27-505)
T2 construct: also called cyno MerTK protein; Cynomolgus
T2 sequence: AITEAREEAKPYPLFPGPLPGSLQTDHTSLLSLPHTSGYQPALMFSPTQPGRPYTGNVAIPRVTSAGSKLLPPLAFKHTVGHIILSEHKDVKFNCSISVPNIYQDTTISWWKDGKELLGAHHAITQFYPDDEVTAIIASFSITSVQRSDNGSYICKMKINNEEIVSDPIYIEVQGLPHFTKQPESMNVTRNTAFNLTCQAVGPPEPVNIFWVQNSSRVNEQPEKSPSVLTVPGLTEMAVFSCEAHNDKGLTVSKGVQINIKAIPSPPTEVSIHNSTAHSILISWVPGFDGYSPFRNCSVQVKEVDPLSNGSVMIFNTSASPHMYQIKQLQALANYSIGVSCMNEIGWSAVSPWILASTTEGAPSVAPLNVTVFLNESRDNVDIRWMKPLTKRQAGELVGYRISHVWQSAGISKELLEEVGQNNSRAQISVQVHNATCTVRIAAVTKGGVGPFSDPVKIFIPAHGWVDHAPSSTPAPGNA

T3: human MerTK-his protein (human, UniProt Q12866 21-505)
T3 construct: extracellular domain; also called hMerTK-His; human MerTK protein
T3 sequence (looked up): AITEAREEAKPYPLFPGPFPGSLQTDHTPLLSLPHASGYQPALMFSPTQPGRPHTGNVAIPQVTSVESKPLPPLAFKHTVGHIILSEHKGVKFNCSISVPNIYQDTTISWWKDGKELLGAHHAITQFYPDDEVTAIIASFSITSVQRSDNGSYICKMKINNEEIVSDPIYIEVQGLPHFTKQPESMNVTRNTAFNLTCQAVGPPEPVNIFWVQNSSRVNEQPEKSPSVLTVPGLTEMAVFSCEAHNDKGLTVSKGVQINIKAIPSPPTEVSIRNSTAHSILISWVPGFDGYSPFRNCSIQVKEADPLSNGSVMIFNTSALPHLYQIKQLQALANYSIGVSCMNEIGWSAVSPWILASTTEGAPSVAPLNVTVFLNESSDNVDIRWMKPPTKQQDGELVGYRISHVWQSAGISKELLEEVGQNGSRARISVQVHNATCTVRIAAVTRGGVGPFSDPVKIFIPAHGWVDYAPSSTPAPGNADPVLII

B1: 276C2D1 chimeric monoclonal antibody (antibody, V domains shown)
VH: QVQLQQSGPELVKPGASVKLSCKASGYTFTSYDINWVKQRPGLGLEWIGWIYPRDGYTKYNEKFKGKATLAVDTSSSTAYMELHSLTSEDSAVYFCARGYYSNLYYFDYWGQGTTLTVSS
VL: EVVLTQSPPTMAASPGEKITITCSASSSISSNYLHWYQQKPGFSPKLLIYRTSNLASGVPARFSGSGSGTSYSLTIGTMEAEDVATYYCQQGRSIPLTFGAGTKLELK
B2: 265F11B5 chimeric monoclonal antibody (antibody, V domains shown)
VH: B1 VH with K19R, S31T, K67R, A97T, S102D
VL: B1 VL with V2I, P9T, M11V, S28I, L34F, K40R, I95V
B3: 300A5A3 chimeric monoclonal antibody (antibody, V domains shown)
VH: B1 VH with S31T, Y80S, S102D, Y109N, Q112P
VL: B1 VL with V2N, P9T, M11V, S28I, V84A, I95V
B4: 293C2B7 chimeric monoclonal antibody (antibody, V domains shown)
VH: B1 VH with L43Q, N61K, A71T, Y100F
VL: B1 VL with V2I, P9T, A13T, A61D
B5: h13B4.v16 benchmark antibody (antibody, V domains shown)
VH: EVQLVESGEGLVQPGGSLRLSCAASGFSLSSYAMGWVRQAPGKGLEYVGIINSYGNTYYANWAKGRFTISRDNSKNTVYLQMGSLRAEDMAVYYCARDPGVSSNLWGRGTLVTVSS
VL: DIQMTQSPSTLSASVGDRVTITCQASQNIYSGLAWYQQKPGKAPKLLIYGASKLASGVPSRFSGSGSGTEFTLTISSLQPDDFATYYCQATYYSSNSVAFGGGTKVEIK
B6: 216G3D6 chimeric monoclonal antibody (antibody, V domains shown)
VH: QVTLKESGPGILQPSQTLSLTCSFSGFSLSTSGMGVGWIRQPSGKGLEWLAHIWWDDDKHCNPALKSRLTISKDTSSNQVFLKIASLDTADTATYYCTQMTMTREFAYWGQGTLVTVSA
VL: DIQMTQTISSLSASLGDRVTISCSAGQGISNYLNWYQQKPDGTVKLLIYYTSRLHSGVPSRFSGSGSGTDFSLTISNLEPEDIATYFCQQYSKFPYTFGGGTKLEIK
B7: 252C12B10 chimeric monoclonal antibody (antibody, V domains shown)
VH: QVQLQQPGTELVKPGASVKLSCKTSGYTFTSYWMHWMKQRPGQGLEWLGHINPSTGGSNYNEKFKSKATLTVDKSSNTAYMQLSSLTSEDSAVYYCARPRGFYGYSYWYFDVWGSGTTVTVSS
VL: DIQMTQTTSSLSASLGDRVTISCSASQDINNYLNWYQHKPDGTIKVLIYFTSSLHSGVPSRFSGSGSGTEYSLTISNLEPEDIATYYCQQYSKLPPTFGSGTKLEIK
B8: 252H9D5 chimeric monoclonal antibody (antibody, V domains shown)
VH: QVTLRESGPGILQPSQTLSLTCSFSGFSLNTFGMGVGWIRQSSGKGLKWLAHIWWDDDKFYNPALKSRLTISKDTSKNQVFLKIANVDTTDTATYYCARIEGGLPYYYDYWGQGTPLIVSS
VL: DIVMTQSQKIMSTSVGDRISVTCKASQIVGTNVVWYQQKPGQSPKALIYSTSYRYSGVPDRFTGSRSGTDFTLTISNVQSEDLANYFCQQYNSYPFTFGSGTKLEIK
B9: 247E5A8 chimeric monoclonal antibody (antibody, V domains shown)
VH: DVQLQESGPGLVKPSQSLSLTCSVTGYSITGGYYWTWIRQFPGNKLEWMGYISYDGDNNYNPSLKNRISITRDTSKNQFFLNLNSVTTEDTATYYCAREGGRLRTMDYWGQGTSVTVSS
VL: QIVLTQSPAIMSASPGEKVTITCRASSSVNYMHWFQQKPGTSPKLWIYTTSNLASGVPARFSGSGSGTSYSLTISRMEAEDAATYYCQQRSSYPFTFGSGTKLEIK
B10: 10F7D9 chimeric monoclonal antibody (antibody, V domains shown)
VH: QIQLVQSGPELKKPGETVKISCKASGYTFTNYGMNWVKQAPGKGLKWMGWINTYTGEPTYADDFKGRFAFSLETSASTAYLQINNLKNEDLATYFCATYGHYAWFAYWGQGTLVTVSA
VL: QIVLSQSPAILSASPGEKVTMTCRASSSVSYMHWYQQKSGSSPKPWIYATSNLASGVPARFSGSGSGTSYSLTISRVEAEDAATYFCQQWGTKPLTFGAGTKLELK
B11: 85H8D5 chimeric monoclonal antibody (antibody, V domains shown)
VH: QIQLVQSGPELKKPGETVKISCMASGYTFTTHGVTWVKQAPGQGLQRMGWINTYSGVPTYADDFKGRFVFSLETSANTAHLQINNLKNEDTATYFCARTNNYRYFDVWGTGTTVTVSS
VL: B10 VL with A13S, S39P, S71F, F86Y, G91N, K93D, L95P, A99G, L105I

This passage reports EC50 and Top results from patent US20260028422A1 (CONCEPT TO MEDICINE BIOTECH, published 2026).

Numbering of substitutions follows the chain as printed.

The target of the first assay is T1, human MerTK expressed on cells. In words: FACS on CHO-K1 cells overexpressing human MerTK, MFI (PE). The protocol:
To evaluate the binding property to the antigen expressed on the cells, the chimeric monoclonal antibodies were analyzed for their binding to human MerTK overexpressed on CHO-K1 cells by FACS. Briefly, human MerTK overexpressing CHO-K1 (CHO-K1-MerTK) cells were firstly incubated with 5-fold serially diluted mAbs starting at 20 nM at 4° C. for 1 hour. After washing with FACS buffer, the PE conjugated anti-human IgG-Fc secondary antibody was added to each well and incubated at 4° C., for 30 mins. The mean fluorescence intensity (MFI) of PE were evaluated by QuantAnalyzer 16.
As for B1, the midpoint of the response, the EC50, lay at 0.04 nM and the Top is 7750 MFI (PE).
As to B2, the EC50 (usually the concentration giving half of the maximal effect) amounted to 0.061 nM and the Top was 9460 MFI (PE).
Taken in the same sequence, the figures for B3 were 0.076 nM and 8350 MFI (PE).
For the molecule B4, the EC50 is 0.064 nM and the Top is 7700 MFI (PE).
As to B5, the EC50 amounted to 0.16 nM and the Top is 4950 MFI (PE).

A further assay shares this target. In words: FACS on SK-MEL-5 cells expressing human MerTK, geometric mean. On the procedure:
To evaluate the binding properties on MerTK expressed on cells, the chimeric monoclonal antibodies were analyzed for their binding to human melanoma cell line SK-MEL-5 expressing MerTK by FACS analysis. Briefly, SK-MEL-5 cells were firstly incubated with 5-fold serially diluted chimeric mAbs starting at 20 nM at 4° C. for 30 mins. After washing by FACS buffer, the PE conjugated anti-human IgG secondary antibody was incubated with the cell-antibody complex in the wells at 4° C. for 30 mins to detect the antibodies those bound to the cells. The MFI of PE was evaluated by QuantAnalyzer 16.
Molecule B6 gave an EC50 of 0.17 nM and a Top of 8270 Geometric Mean.
The corresponding values for B7 are 0.043 nM and 4460 Geometric Mean.
As to B8, a half-maximal response (EC50) required 0.053 nM and the Top stood at 4790 Geometric Mean.
Taken in the same sequence, the figures for B9 were 0.094 nM and 7160 Geometric Mean.
Molecule B10 gave an EC50 of 0.025 nM and a Top of 7070 Geometric Mean.
For B11, the EC50 turned out to be 0.022 nM and the Top came out at 6860 Geometric Mean.
On to B5, for which the midpoint of the response, the EC50, lay at 0.092 nM and the Top turned out to be 4520 Geometric Mean.

Another assay concerns the target T2, cyno MerTK-his protein. In words: ELISA, coated cyno MerTK-his. On the procedure: (§1) To evaluate the binding activity, the chimeric mAbs were subjected to ELISA test. Briefly, 96-well plates were coated with human or cyno MerTK-his protein at 2 μg/mL in PBS, 100 μL/well at 4° C. overnight, then blocked with 150 μL/well of 1% BSA. Five-fold dilutions of MerTK antibodies starting from 20 nM were added to each well and incubated for 1 hour at room temperature. The plates were washed with PBS/Tween-20 and then incubated with goat anti-human IgG Fe antibody conjugated with Horse Radish Peroxidase (HRP) for 30 minutes (mins) at room temperature. After washing, the plates were developed with TMB substrate and subsequent stop solution was added to complete the reaction. The signal from each well was read by spectrophotometer at OD 450 nm.
A general note: In an ELISA, binding on a coated surface is turned into a signal by an enzyme label.
Molecule B6 had an EC50 of 0.047 nM.
Same read-out and setting: the value for B7 was 0.04 nM.
B8: the EC50 stood at 0.15 nM.
Molecule B1 yielded an EC50 of 0.02 nM.
The molecule B2 gave an EC50 of 0.017 nM.
In turn, B3 returned an EC50 of 0.026 nM.
On to B4, for which a half-maximal effect (EC50) was put at 0.02 nM.
Same read-out and setting: for B9 the value was 0.037 nM.
The molecule B10 registered an EC50 of 0.024 nM.
The molecule B11 showed an EC50 of 0.024 nM.

In a further assay the target is T3, human MerTK-his protein. In words: ELISA, coated human MerTK-his. The protocol:
as §1
Molecule B6 gave an EC50 of 0.046 nM.
B7: a half-maximal effect (EC50) was put at 0.039 nM.
Turning to B8, a half-maximal response (EC50) required 0.052 nM.
With B1, the EC50 is 0.019 nM.
The same measure, in the same setting: the value for B2 was 0.0097 nM.
Consider B3, for which the EC50 amounted to 0.024 nM.
Take B4: the EC50 stood at 0.017 nM.
On to B9, for which it took 0.032 nM to reach a half-maximal effect (EC50).
As to B10, the EC50 is 0.027 nM.
Same read-out and setting: the value for B11 was 0.025 nM.
